Experimental data: article PMC11187062

B1: human DPPA3, residues 81–118 (recombinant) [human] / human UHRF1 PHD finger, residues 299–366 [human] (parent)
chain 1: SRRGVRTLLSVQREKMARLRYMLLGGVRTHERRPTNKE
chain 2: GPSCKHCKDDVNRLCRVCACHLCGGRQDPDKQLMCDECDMAFHIYCLDPPLSSVPSEDEWYCPECRND

Variants of: B1
Assay: ITC
Details: with human UHRF1 PHD finger

Kd	Variant
1610 nM	chain 1 SRRGARTLLSVQREKMARLRYMLLGGVRTHERRPTNKE [chain 1 V5A]
